Laboratory results taken from patent US20220119534A1 (DRAGONFLY THERAPEUTICS, published 2022).
Changes are numbered by the printed parent chain. Where two headings read alike, the source gives them in different places.

Columns and labels:
[1] = biological target: T1, human CLEC12A on cells (HL60, PL21, Ba/F3-hCLEC12A) (human, UniProt Q5QGZ9 1-265); experiment: flow cytometry, PL21 cells
T1 construct: Endogenous on the AML lines HL60 and PL21; brought into mouse Ba/F3 cells by retroviral transduction; The cell line stands under assay; also called CLL-1
T1 sequence: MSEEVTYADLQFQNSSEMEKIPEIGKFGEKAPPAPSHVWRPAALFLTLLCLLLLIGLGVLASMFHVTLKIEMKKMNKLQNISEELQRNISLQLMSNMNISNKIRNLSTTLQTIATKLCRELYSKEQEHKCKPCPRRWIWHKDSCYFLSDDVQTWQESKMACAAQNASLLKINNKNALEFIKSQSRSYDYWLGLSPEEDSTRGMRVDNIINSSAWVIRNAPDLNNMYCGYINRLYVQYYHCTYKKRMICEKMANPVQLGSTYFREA

[2] = biological target: T1, human CLEC12A on cells (HL60, PL21, …); experiment: flow cytometry, Ba/F3-hCLEC12A cells
[3] = biological target: T1, human CLEC12A on cells (HL60, PL21, …); experiment: flow cytometry, HL60 cells
[4] = biological target: T2, recombinant human CLEC12A-His (human, UniProt Q5QGZ9 65-265); experiment: SPR screening, semi-purified
T2 construct: also called hCLEC12A-His; hCLEC12A
T2 sequence: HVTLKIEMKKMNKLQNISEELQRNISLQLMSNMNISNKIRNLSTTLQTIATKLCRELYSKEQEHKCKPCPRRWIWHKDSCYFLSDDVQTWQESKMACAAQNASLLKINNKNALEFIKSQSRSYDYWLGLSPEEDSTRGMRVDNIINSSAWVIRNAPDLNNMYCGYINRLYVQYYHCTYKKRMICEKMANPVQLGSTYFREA

[5] = biological target: T2, recombinant human CLEC12A-His; experiment: SPR screening, semi-purified; remark: listed apart in the source

B1: hcFAE-A49.h6E7 (Duobody TriNKET) (bispecific antibody, V domains shown)
VH 1: EVQLVQSGAEVKKPGASVKVSCKASGYSFTDYYMHWVRQAPGQGLEWIGRINPYNGAAFYSQNFKDRVTLTVDTSTSTAYLELSSLRSEDTAVYYCAIERGADLEGYAMDYWGQGTLVTVSS
VL 1: DIQMTQSPSSLSASVGDRVTITCRASQSVSTSSYNYMHWYQQKPGKPPKLLIKYASNLESGVPSRFSGSGSGTDFTLTISSLQPEDFATYYCQHSWEIPLTFGQGTKVEIK
VH 2: EVQLVESGGGLVKPGGSLRLSCAASGFTFSSYSMNWVRQAPGKGLEWVSSISSSSSYIYYADSVKGRFTISRDNAKNSLYLQMNSLRAEDTAVYYCARGAPMGAAAGWFDPWGQGTLVTVSS
VL 2: DIQMTQSPSSVSASVGDRVTITCRASQGISSWLAWYQQKPGKAPKLLIYAASSLQSGVPSRFSGSGSGTDFTLTISSLQPEDFATYYCQQGVSFPRTFGGGTKVEIK
notes: also called Duobody TriNKET based on h6E7 antibody from Genentech
- EC50 [1]: 0.55 nM
- FOB (fold over background) [1]: 10 fold
- EC50 [2]: 2.87 nM
- FOB (fold over background) [2]: 318 fold
- EC50 [3]: 1.33 nM
- FOB (fold over background) [3]: 31 fold

B2: hcFAE-A49.CLL1-Merus (Duobody TriNKET) (bispecific antibody, V domains shown)
VH 1: EVQLVQSGAEVKKPGASVKVSCKASGYTFTSYYMHWVRQAPGQGLEWMGIINPSGGSTSYAQKFQGRVTMTRDTSTSTVYMELSSLRSEDTAVYYCARGNYGDEFDYWGQGTLVTVSS
VL 1: not shown
VH 2: B1 VH 2
VL 2: B1 VL 2
notes: Duobody format; also called Duobody TriNKET based on CLL1 antibody from Merus
- EC50 [1]: 1.13 nM
- FOB (fold over background) [1]: 15 fold
- EC50 [2]: 4.45 nM
- FOB (fold over background) [2]: 369 fold
- EC50 [3]: 2.79 nM
- FOB (fold over background) [3]: 59 fold

B3: F3'-1292 (other)
chain: QLQLQESGPGLVKPSETLSLTCTVSGFSLTNYGLHWIRQPPGKCLEWIGVIWSGGKTDYNPSLKSRVTISKDTSKNQFSLKLSSVQANDTAVYYCAKYDYDDSLDYWGQGTLVTVSSGGGGSGGGGSGGGGSGGGGSDIQMTQSPSSLSASVGDRVTITCHASQNINFWLSWYQQKPGKIPKLLIYEASNLHTGVPSRFSGSGSGTRFTLTISSLQPEDIATYYCQQSHSYPLTFGCGTKLEIKGSDKTHTCPPCPAPELLGGPSVFLFPPKPKDTLMISRTPEVTCVVVDVSHEDPEVKFNWYVDGVEVHNAKTKPREEQYNSTYRVVSVLTVLHQDWLNGKEYKCKVSNKALPAPIEKTISKAKGQPREPRVYTLPPCRDELTKNQVSLTCLVKGFYPSDIAVEWESNGQPENNYKTTPPVLVSDGSFTLYSKLTVDKSRWQQGNVFSCSVMHEALHNHYTQKSLSLSPG
heavy: EVQLVESGGGLVKPGGSLRLSCAASGFTFSSYSMNWVRQAPGKGLEWVSSISSSSSYIYYADSVKGRFTISRDNAKNSLYLQMNSLRAEDTAVYYCARGAPIGAAAGWFDPWGQGTLVTVSSASTKGPSVFPLAPSSKSTSGGTAALGCLVKDYFPEPVTVSWNSGALTSGVHTFPAVLQSSGLYSLSSVVTVPSSSLGTQTYICNVNHKPSNTKVDKKVEPKSCDKTHTCPPCPAPELLGGPSVFLFPPKPKDTLMISRTPEVTCVVVDVSHEDPEVKFNWYVDGVEVHNAKTKPREEQYNSTYRVVSVLTVLHQDWLNGKEYKCKVSNKALPAPIEKTISKAKGQPREPQVCTLPPSRDELTENQVSLTCLVKGFYPSDIAVEWESNGQPENNYKTTPPVLDSDGSFFLYSWLTVDKSRWQQGNVFSCSVMHEALHNHYTQKSLSLSPG
light: DIQMTQSPSSVSASVGDRVTITCRASQGISSWLAWYQQKPGKAPKLLIYAASSLQSGVPSRFSGSGSGTDFTLTISSLQPEDFATYYCQQGVSFPRTFGGGTKVEIKRTVAAPSVFIFPPSDEQLKSGTASVVCLLNNFYPREAKVQWKVDNALQSGNSQESVTEQDSKDSTYSLSSTLTLSKADYEKHKVYACEVTHQGLSSPVTKSFNRGEC
notes: F3' TriNKET, scFv-Fc chain built from the general F3' description; semi-purified
- Kd [4]: 3.22 nM
- koff [4]: 0.0013 s⁻¹
- kon [4]: 402000 M⁻¹ s⁻¹

B4: AB0237-Dead-2D (other)
chain: B3 chain with N88A, I180A
heavy: B3 heavy
light: DIQMTQSPSTLSASVGDRVTITCRASNSISSWLAWYQQKPGKAPKLLIYEASSTKSGVPSRFSGSGSGTEFTLTISSLQPDDFATYYCQQYDDLPTFGGGTKVEIKRTVAAPSVFIFPPSDEQLKSGTASVVCLLNNFYPREAKVQWKVDNALQSGNSQESVTEQDSKDSTYSLSSTLTLSKADYEKHKVYACEVTHQGLSSPVTKSFNRGEC
notes: also called AB0237 NKG2D dead arm variant
- EC50 [1]: 0.63 nM
- FOB (fold over background) [1]: 14 fold
- EC50 [2]: 2.35 nM
- FOB (fold over background) [2]: 357 fold
- EC50 [3]: 1.19 nM
- FOB (fold over background) [3]: 59 fold

B5: AB0188 (other)
chain: DIKMTQSPSSLSASVGDRVTITCKASQDIYNYLSWFQQKPGKAPKPLIYRANILVSGVPSRFSGSGSGQDYTLTISSLQPEDIATYYCLQFDAFPFTFGCGTKLEIKGGGGSGGGGSGGGGSGGGGSEVQLVESGGGVVQPGGSLRLSCAASGFTFNSFGMHWVRQAPGKCLEWVAFISSGSTSIYYANTVKGRFTISRDNSKNTLYLQMNSLRAEDTAVYYCARDGYPTGGAMDYWGQGTSVTVSSGSDKTHTCPPCPAPELLGGPSVFLFPPKPKDTLMISRTPEVTCVVVDVSHEDPEVKFNWYVDGVEVHNAKTKPREEQYNSTYRVVSVLTVLHQDWLNGKEYKCKVSNKALPAPIEKTISKAKGQPREPRVYTLPPCRDELTKNQVSLTCLVKGFYPSDIAVEWESNGQPENNYKTTPPVLVSDGSFTLYSKLTVDKSRWQQGNVFSCSVMHEALHNHYTQKSLSLSPG
heavy: B3 heavy
light: B3 light
notes: As AB0185
- Kd [5]: 1.58 nM
- koff [5]: 0.000901 s⁻¹
- kon [5]: 569000 M⁻¹ s⁻¹

B6: F3'-1297 (other)
chain: B3 chain with I180A
heavy: B3 heavy
light: B3 light
notes: As F3'-1292
- Kd [4]: 2.79 nM
- koff [4]: 0.00141 s⁻¹
- kon [4]: 504000 M⁻¹ s⁻¹

B7: F3'-1296 (other)
chain: B3 chain with K97R
heavy: B3 heavy
light: B3 light
notes: As F3'-1292
- Kd [4]: 1.34 nM
- koff [4]: 0.00117 s⁻¹
- kon [4]: 874000 M⁻¹ s⁻¹

B8: F3'-1306 (other)
chain: DIQMTQSPSSLSASVGDRVTITCHASQNINFWLSWYQQKPGKAPKLLIYEASNLHTGVPSRFSGSGSGTRFTLTISSLQPEDIATYYCQQSHSYPLTFGCGTKLEIKGGGGSGGGGSGGGGSGGGGSQLQLQESGPGLVKPSETLSLTCTVSGFSLTNYGLHWIRQPPGKCLEWIGVIWSGGKTDYNPSLKSRVTISKDTSKNQFSLKLSSVQANDTAVYYCAKYDYDDSLDYWGQGTLVTVSSGSDKTHTCPPCPAPELLGGPSVFLFPPKPKDTLMISRTPEVTCVVVDVSHEDPEVKFNWYVDGVEVHNAKTKPREEQYNSTYRVVSVLTVLHQDWLNGKEYKCKVSNKALPAPIEKTISKAKGQPREPRVYTLPPCRDELTKNQVSLTCLVKGFYPSDIAVEWESNGQPENNYKTTPPVLVSDGSFTLYSKLTVDKSRWQQGNVFSCSVMHEALHNHYTQKSLSLSPG
heavy: B3 heavy
light: B3 light
notes: As F3'-1292
- Kd [4]: 5.16 nM
- koff [4]: 0.0489 s⁻¹
- kon [4]: 9.48e+06 M⁻¹ s⁻¹

B9: AB0300 (other, name in EU numbering)
chain: B3 chain with N88A, I180A, L260A, L261A, P355G
heavy: B3 heavy with L239A, L240A, P334G
light: B3 light
notes: Positions are EU numbers, not positions counted on the entries; also called AB0237si
- EC50 [1]: 1.58 nM
- FOB (fold over background) [1]: 18 fold
- EC50 [2]: 2.92 nM
- FOB (fold over background) [2]: 368 fold
- EC50 [3]: 1.5 nM
- FOB (fold over background) [3]: 65 fold
